Here are results for five molecules from US6319685A (Unigene Laboratories, Inc., priority 1987, dated 2001).

Where two headings read alike, the source gives them in different places. No end group written: not given here. Where only a bound is given, the exact number is not on record here.

Data set [1] is described as follows: biological activity of amidated recombinant hormones versus synthetic hormone.
Data set [2] in a line: specific alpha-amidating activity, conversion of Dansyl-D-Tyr-Val-Gly to Dansyl-D-Tyr-Val-CONH2. The class given is biochemical. Particulars: homogeneous peak III enzyme, rat MTC tumor. How it is done:
These and other objects will become apparent from a thorough reading of the present disclosure. […] All specific activity units set forth herein are based upon the conversion of Dansyl-D-Try-Val-Gly-COOH to Dansyl-D-Tyr-Val-CONH2. One mU is defined as the amount of activity needed to convert one nanomole (nmole) of Dansyl-D-Tyr-Val-Gly-COOH to one nmole of Dansyl-D-Tyr-Val-CONH2 per minute at 37° C. and pH 7.0 in the presence of ascorbate ions at a concentration of 3 mM (based on total reaction mixture including enzyme, substrate, co-factors, etc.), molecular oxygen in a molar excess over substrate and a concentration of cupric ions effective to maximize activity (usually about 2 μM depending on the state of purity of the enzyme).
Each purification step can be monitored for both protein content and the level of alpha-amidation activity. This information is used to calculate the specific activity of the enzyme which serves as an indicator of the relative purity of the enzyme.
Sephacryl S-300 (Pharmacia) was equilibrated in 50 mM Tris HCl pH 7.0 and poured into a K 50/100 column (Pharmacia) according to the manufacturer's instructions. The bed volume of the column was approximately 1.3 liters. The Sample was loaded onto the column in a volume representing approximately 3 percent of the bed volume of the column. Proteins were eluted from the column in 50 mM Tris HCl pH 7.0 at a flow rate of approximately 2 ml per minute.
The reaction mixture for the conversion of the monodansyl substrate contained:
The samples were prepared in duplicate and incubated at 37° C. for 10, 20 and 30 minutes time periods. The enzymatic reaction was halted by the addition of 10 ul 500 mM EDTA.

Data set [3] is described as follows: pH optimum of alpha-amidating enzyme. The class given is biochemical. Particulars: rat MTC tumor enzyme, N dansyl Tyr-Val-Gly substrate. How it is done:
2. The optimum pH for the activity of the enzyme was determined to be pH 5.0-5.5 using N dansyl Tyr-Val-Gly as the substrate (FIG. XVI). However, due to the enhanced stability of the enzyme at neutral pH, it may be beneficial to carry out the amidation reaction at such pH.

The nature of data set [4]: iso-electric point of alpha-amidating enzyme. It counts as physicochemical.
Data set [5] concerns the target T1, alpha-amidating enzyme (Rattus norvegicus, UniProt P14925).
T1 sequence (P14925 36-976): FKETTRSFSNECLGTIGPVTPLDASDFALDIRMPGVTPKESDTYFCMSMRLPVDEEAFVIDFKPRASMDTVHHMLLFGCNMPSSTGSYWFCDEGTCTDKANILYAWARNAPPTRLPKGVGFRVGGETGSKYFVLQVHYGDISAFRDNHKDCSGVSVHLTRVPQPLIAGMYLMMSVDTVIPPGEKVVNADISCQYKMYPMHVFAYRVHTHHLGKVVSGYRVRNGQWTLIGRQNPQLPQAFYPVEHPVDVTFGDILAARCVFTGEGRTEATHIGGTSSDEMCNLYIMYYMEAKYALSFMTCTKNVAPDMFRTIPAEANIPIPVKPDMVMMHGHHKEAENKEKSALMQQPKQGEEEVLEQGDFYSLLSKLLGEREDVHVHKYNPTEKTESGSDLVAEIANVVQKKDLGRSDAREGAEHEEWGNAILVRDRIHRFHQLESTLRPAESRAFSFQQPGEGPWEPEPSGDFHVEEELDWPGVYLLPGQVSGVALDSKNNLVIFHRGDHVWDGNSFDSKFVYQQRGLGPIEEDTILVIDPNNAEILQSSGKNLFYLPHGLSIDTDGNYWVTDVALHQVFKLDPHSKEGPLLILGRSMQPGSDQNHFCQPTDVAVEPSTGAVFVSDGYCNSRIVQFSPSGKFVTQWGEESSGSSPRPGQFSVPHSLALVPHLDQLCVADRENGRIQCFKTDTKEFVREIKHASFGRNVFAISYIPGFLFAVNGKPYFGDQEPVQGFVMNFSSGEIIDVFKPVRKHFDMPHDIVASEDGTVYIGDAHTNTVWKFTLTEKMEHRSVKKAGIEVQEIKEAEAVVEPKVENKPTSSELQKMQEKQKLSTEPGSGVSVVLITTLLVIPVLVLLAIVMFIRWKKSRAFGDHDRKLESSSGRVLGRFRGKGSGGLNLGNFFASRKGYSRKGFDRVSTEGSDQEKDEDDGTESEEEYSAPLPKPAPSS
Description: co-factor requirement of alpha-amidating enzyme for maximal activity. The class given is biochemical.

The conditions of data set [6]: cited from earlier work.

As for “recombinant hGHRF: recombinant, alpha-amidated human growth hormone releasing factor (YADAIFTNSYRKVLGQLSARKLLQDIMSRQQGESNQERGARARL-NH2; UniProt P01286 32-75, looked up)”, in data set [1], the “biological activity (and characterization) compared with synthetic hormone” value is “indistinguishable from synthetic hGHRF”.
On the same count and under the same terms, to “recombinant human calcitonin: purified alpha-amidated recombinant human calcitonin (CGNLSTCMLGTYTQDFNKFHTFPQTAIGVGAP-NH2; ends and bridges not checked; UniProt P01258 85-116, looked up)” belongs “indistinguishable from synthetic human calcitonin”.

B1: peak III enzyme (MTC tumor): MTC tumor alpha-amidating enzyme peak eluting at 220 mM NaCl from Mono Q pH 6.0, purified to homogeneity (protein, UniProt P14925 36-976, looked up)
Peptidylglycine …: FKETTRSFSNECLGTIGPVTPLDASDFALDIRMPGVTPKESDTYFCMSMRLPVDEEAFVIDFKPRASMDTVHHMLLFGCNMPSSTGSYWFCDEGTCTDKANILYAWARNAPPTRLPKGVGFRVGGETGSKYFVLQVHYGDISAFRDNHKDCSGVSVHLTRVPQPLIAGMYLMMSVDTVIPPGEKVVNADISCQYKMYPMHVFAYRVHTHHLGKVVSGYRVRNGQWTLIGRQNPQLPQAFYPVEHPVDVTFGDILAARCVFTGEGRTEATHIGGTSSDEMCNLYIMYYMEAKYALSFMTCTKNVAPDMFRTIPAEANIPIPVKPDMVMMHGHHKEAENKEKSALMQQPKQGEEEVLEQGDFYSLLSKLLGEREDVHVHKYNPTEKTESGSDLVAEIANVVQKKDLGRSDAREGAEHEEWGNAILVRDRIHRFHQLESTLRPAESRAFSFQQPGEGPWEPEPSGDFHVEEELDWPGVYLLPGQVSGVALDSKNNLVIFHRGDHVWDGNSFDSKFVYQQRGLGPIEEDTILVIDPNNAEILQSSGKNLFYLPHGLSIDTDGNYWVTDVALHQVFKLDPHSKEGPLLILGRSMQPGSDQNHFCQPTDVAVEPSTGAVFVSDGYCNSRIVQFSPSGKFVTQWGEESSGSSPRPGQFSVPHSLALVPHLDQLCVADRENGRIQCFKTDTKEFVREIKHASFGRNVFAISYIPGFLFAVNGKPYFGDQEPVQGFVMNFSSGEIIDVFKPVRKHFDMPHDIVASEDGTVYIGDAHTNTVWKFTLTEKMEHRSVKKAGIEVQEIKEAEAVVEPKVENKPTSSELQKMQEKQKLSTEPGSGVSVVLITTLLVIPVLVLLAIVMFIRWKKSRAFGDHDRKLESSSGRVLGRFRGKGSGGLNLGNFFASRKGYSRKGFDRVSTEGSDQEKDEDDGTESEEEYSAPLPKPAPSS
modifications: Mono Q peak III form
As for B1, the specific activity in data set [2] is reported as 2,100 mU/mg protein. Moreover, the pH optimum in data set [3] was 5.0-5.5. Further, the “iso-electric point (pI)” value in data set [4] was determined as 4.8. In addition, the “Cu++ required for maximal activity” value in data set [5] was at most 0.1 µM.

B2: alpha-amidating enzyme from rat pituitaries: alpha-amidating enzyme partially purified from rat pituitaries (protein, UniProt P14925 36-976, looked up)
Peptidylglycine …: FKETTRSFSNECLGTIGPVTPLDASDFALDIRMPGVTPKESDTYFCMSMRLPVDEEAFVIDFKPRASMDTVHHMLLFGCNMPSSTGSYWFCDEGTCTDKANILYAWARNAPPTRLPKGVGFRVGGETGSKYFVLQVHYGDISAFRDNHKDCSGVSVHLTRVPQPLIAGMYLMMSVDTVIPPGEKVVNADISCQYKMYPMHVFAYRVHTHHLGKVVSGYRVRNGQWTLIGRQNPQLPQAFYPVEHPVDVTFGDILAARCVFTGEGRTEATHIGGTSSDEMCNLYIMYYMEAKYALSFMTCTKNVAPDMFRTIPAEANIPIPVKPDMVMMHGHHKEAENKEKSALMQQPKQGEEEVLEQGDFYSLLSKLLGEREDVHVHKYNPTEKTESGSDLVAEIANVVQKKDLGRSDAREGAEHEEWGNAILVRDRIHRFHQLESTLRPAESRAFSFQQPGEGPWEPEPSGDFHVEEELDWPGVYLLPGQVSGVALDSKNNLVIFHRGDHVWDGNSFDSKFVYQQRGLGPIEEDTILVIDPNNAEILQSSGKNLFYLPHGLSIDTDGNYWVTDVALHQVFKLDPHSKEGPLLILGRSMQPGSDQNHFCQPTDVAVEPSTGAVFVSDGYCNSRIVQFSPSGKFVTQWGEESSGSSPRPGQFSVPHSLALVPHLDQLCVADRENGRIQCFKTDTKEFVREIKHASFGRNVFAISYIPGFLFAVNGKPYFGDQEPVQGFVMNFSSGEIIDVFKPVRKHFDMPHDIVASEDGTVYIGDAHTNTVWKFTLTEKMEHRSVKKAGIEVQEIKEAEAVVEPKVENKPTSSELQKMQEKQKLSTEPGSGVSVVLITTLLVIPVLVLLAIVMFIRWKKSRAFGDHDRKLESSSGRVLGRFRGKGSGGLNLGNFFASRKGYSRKGFDRVSTEGSDQEKDEDDGTESEEEYSAPLPKPAPSS
modifications: partially purified
Consider B2, for which, in data set [6] (pH levels below 6.5 or above 7.5), the “enzyme activity outside pH 6.5-7.5” value was “declined rapidly”. For the same molecule, in data set [6] (pituitary, partially purified), the pH optimum is 7.

B3: peak II enzyme (MTC tumor): MTC tumor alpha-amidating enzyme peak eluting at 200 mM NaCl from Mono Q pH 6.0 (protein, UniProt P14925 36-976, looked up)
Peptidylglycine …: FKETTRSFSNECLGTIGPVTPLDASDFALDIRMPGVTPKESDTYFCMSMRLPVDEEAFVIDFKPRASMDTVHHMLLFGCNMPSSTGSYWFCDEGTCTDKANILYAWARNAPPTRLPKGVGFRVGGETGSKYFVLQVHYGDISAFRDNHKDCSGVSVHLTRVPQPLIAGMYLMMSVDTVIPPGEKVVNADISCQYKMYPMHVFAYRVHTHHLGKVVSGYRVRNGQWTLIGRQNPQLPQAFYPVEHPVDVTFGDILAARCVFTGEGRTEATHIGGTSSDEMCNLYIMYYMEAKYALSFMTCTKNVAPDMFRTIPAEANIPIPVKPDMVMMHGHHKEAENKEKSALMQQPKQGEEEVLEQGDFYSLLSKLLGEREDVHVHKYNPTEKTESGSDLVAEIANVVQKKDLGRSDAREGAEHEEWGNAILVRDRIHRFHQLESTLRPAESRAFSFQQPGEGPWEPEPSGDFHVEEELDWPGVYLLPGQVSGVALDSKNNLVIFHRGDHVWDGNSFDSKFVYQQRGLGPIEEDTILVIDPNNAEILQSSGKNLFYLPHGLSIDTDGNYWVTDVALHQVFKLDPHSKEGPLLILGRSMQPGSDQNHFCQPTDVAVEPSTGAVFVSDGYCNSRIVQFSPSGKFVTQWGEESSGSSPRPGQFSVPHSLALVPHLDQLCVADRENGRIQCFKTDTKEFVREIKHASFGRNVFAISYIPGFLFAVNGKPYFGDQEPVQGFVMNFSSGEIIDVFKPVRKHFDMPHDIVASEDGTVYIGDAHTNTVWKFTLTEKMEHRSVKKAGIEVQEIKEAEAVVEPKVENKPTSSELQKMQEKQKLSTEPGSGVSVVLITTLLVIPVLVLLAIVMFIRWKKSRAFGDHDRKLESSSGRVLGRFRGKGSGGLNLGNFFASRKGYSRKGFDRVSTEGSDQEKDEDDGTESEEEYSAPLPKPAPSS
modifications: Mono Q peak II form
For B3, in data set [3], the pH optimum was 5.0-5.5. Further, in data set [4], the “iso-electric point (pI)” value is given as “approximately 5.8”.
